Results: article PMC9610346

How the values were obtained:
[1] = target: gp145 SOSIP construct of the Env spike protein from the HIV-1 BG505 clade A strain, nanodisc-embedded trimer (HIV-1 strain BG505 (clade A)); assay: negative-stain EM
[2] = target: gp145 SOSIP construct of the Env spike protein from the HIV-1 BG505 clade A strain, nanodisc-embedded trimer (HIV-1 strain BG505 (clade A)); assay: cryo-EM structure

Substance: gp145 SOSIP construct of the Env spike protein from the HIV-1 BG505 clade A strain, nanodisc-embedded trimer (complex)
- stoichiometry N [1]: 3
- stoichiometry N [2]: 3
